The RNAGym collection of RNA variant scans (doi:10.1073/pnas.2313332121)
This sample holds only a part of the variants without activity.

B1: TPR 5TU (parent)
chain: GGAUCUUCUCGAUCUAACAAAAAAGACAAAUCUGCCACAAAGCUUGAGAGCAUCUUCGGAUGCAGAGGCGGCAGCCUUCGGUGGCGCGAUAGCGCCAACGUUCUCAACUAUGACACGCAAAACGCGUGCUCCGUUGAAUGGAGUUUAUCAUG

Variants of: B1
Assay: polymerase ribozyme fitness, log enrichment relative to wild type (log ratio); higher = more active; in vitro selection for triplet polymerase activity
Summary of the method: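 Genotype fitness is the logarithm of its enrichment divided by wild-type enrichment, using inverse-variance-weighted averages of replicates. That logarithm is base 2. Enrichment was measured by Illumina sequencing of input and output libraries from one triplicate in vitro selection round, with frozen incubation at −7 °C, on PCR-built, transcribed mutant libraries of each subunit of a heterodimeric triplet polymerase ribozyme, retaining genotypes with ≥10 input reads and ≥1 read per output.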

Point of comparison: A49G C57U, “polymerase ribozyme fitness (log ratio)” value -0.525. Against it:
- G50A G83A C87A A91C G92A U146A — lower, ≤ -4.2
- G50A G74C C87A U144C U151C — lower, ≤ -4.2
- G50C C93G C99G G126U — lower, ≤ -4.2
- A49G G92A — lower, -3.9
- A49G G92C — lower, -2.39
- A49U U61C G70A G92U — lower, ≤ -4.2
- G50A G68A C95A G140C — lower, ≤ -4.2
- A49G C51G U53G C79U C118U — lower, ≤ -4.2
- G50C C96G — lower, -2.66
- G50C C96U — lower, -2.14
- G50C C75G C85A C132U — lower, ≤ -4.2
- A49U C85U U148A — lower, ≤ -4.2
- G50C G83A C87U G141U — lower, ≤ -4.2
- G50C U56A C57G A66G C95A C99U A113G G140A — lower, -4.04
- G50C C57G C118G — lower, -3.68
- A49U G94A A119C — lower, -1.28
- A49G C93A G100A — lower, ≤ -4.2
- G50A C76A C87A A97G C118U G141C — lower, ≤ -4.2
- G50C C85A U144G — lower, ≤ -4.2
- A49U A138U — lower, ≤ -4.2
- G50A G71C A91U A150U — lower, ≤ -4.2
- G50A A150G — lower, -3.11
- G50C U53A — lower, -3.26
- G50C C51U C54G C87U — lower, ≤ -4.2
- G50C U53C G83A C95G — lower, ≤ -4.2
- G50C A89G A107C C123G — lower, ≤ -4.2
- G50A G74U G83A C85G G126U C149A — lower, ≤ -4.2
- A49G C85U — lower, -0.982
- A49G C85A — lower, -2.52
- G50A C118A A119U G143A — lower, -2.71
- A49G G71A G126A — lower, ≤ -4.2
- A49U U55A C96A — lower, -1.06
- G50A C54G C116U — lower, -2.17
- G50U A52G C99G — lower, -2.55
- G50A G58A U78A G94A G141U — lower, ≤ -4.2
- G50A C103G U111G A122U U151A — lower, ≤ -4.2
- G50A C54A C87A G128A — lower, ≤ -4.2
- G50A C99A U145A — lower, -3.7
- A49U G50U U53G A106U A122G — lower, ≤ -4.2
- G50A A52U C76G A150G — lower, ≤ -4.2
- G50A A122U A137G — lower, -2.6
- A49G G50C G71A A91U U151A — lower, ≤ -4.2
- A49G C93A — lower, -3.6
- G50A G86C C99U U104G C116G — lower, ≤ -4.2
- A49G U135C U145C — lower, -2.6
- G50C G94U A121U G128U — lower, ≤ -4.2
- G50C A52C G128A — lower, ≤ -4.2
- G50C C103A U139C — lower, ≤ -4.2
- A49U G92U — within 0.2 log units, -0.559
- A49G C87G — lower, -4.02
- G50A C72U C85A — lower, -2.69
- G50C G83C U135A — lower, ≤ -4.2
- G50C U56A G62C C72U C95U — lower, ≤ -4.2
- G50A C96U C125G — lower, -2.14
- A49U U148C — lower, -3.02
- G50A G94A C116G — lower, -1.53
- G50A A106C — lower, -2.72
- G50U A64G — lower, ≤ -4.2
- A49U G58U U78A C96G C103U U135A — lower, ≤ -4.2
- G50A G92A U101G G117C — lower, -3.96
- G50A C51U U55G G84A G128A C131G U135C — lower, ≤ -4.2
- G50C G83C G94A C132U U135C A142U — lower, ≤ -4.2
- G50A A52C C57G C93U — lower, -3.12
- G50A G141A — lower, -0.962
- A49U G50U C125U — lower, -1.77
- G50A U56A G62C C63A C96G — lower, ≤ -4.2
- G50C G84U — lower, -3.79
- G50C A66C C79G C93U C95U U139C A147U — lower, ≤ -4.2
- A49U U55A — lower, -1.02
- G50A C57A G58C U77C G88C U139A — lower, ≤ -4.2
- G50A U53A G58C C79U A121G U134A U139G — lower, ≤ -4.2
- G50A C75U C76U U77A C96A A110G — lower, ≤ -4.2
- G50A C116U — lower, -1.34
- G50C U53A C57G G70A G100C A120G — lower, ≤ -4.2
- G50A U55G G67C G80U C85G C105U A138U — lower, ≤ -4.2
- G50A U144A — lower, -1.6
- G50A A73G A150G — lower, ≤ -4.2
- G50A C54U — lower, -1.32
- G50A A52G — lower, -1.15
- G50A G58U C95U C118G — lower, -1.92
- G50A U56A C95U — lower, -1.99
- A49G C75A G136U A138C — lower, ≤ -4.2
- A49U G84A G136U — lower, -3.29
